Laboratory results: US20230174635A1 (UCB, published 2023)
Positions count from the first letter of the chain named. Values belong to the binder of their own block, whether it stands above or below them.

How the values were obtained:
Assay in all cases: cell-based or functional assay
[1] = target: T1, BMP4/7 heterodimer (human, UniProt P12644 293-408; P18075 293-431)
T1 sequence (looked up) 1: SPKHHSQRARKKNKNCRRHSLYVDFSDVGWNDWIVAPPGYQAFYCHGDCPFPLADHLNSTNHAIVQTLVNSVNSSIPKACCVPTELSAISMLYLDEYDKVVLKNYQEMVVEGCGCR
T1 sequence (looked up) 2: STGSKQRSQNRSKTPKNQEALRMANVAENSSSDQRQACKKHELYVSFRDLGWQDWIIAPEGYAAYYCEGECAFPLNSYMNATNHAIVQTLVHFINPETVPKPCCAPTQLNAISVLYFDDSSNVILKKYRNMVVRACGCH

[2] = target: T2, recombinant human Gremlin-1 (human, UniProt O60565 25-184)
T2 sequence: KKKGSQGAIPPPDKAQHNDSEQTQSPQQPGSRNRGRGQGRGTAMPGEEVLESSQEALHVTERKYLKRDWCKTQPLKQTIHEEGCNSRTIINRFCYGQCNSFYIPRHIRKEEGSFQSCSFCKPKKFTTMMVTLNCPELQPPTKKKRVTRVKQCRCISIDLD

[3] = target: T3, mouse Gremlin (mouse, UniProt O70326 25-184)
T3 sequence (looked up): T2 sequence with Q27P, N33T

IC50 (geometric mean, N=2), inhibition of BMP4/7 signalling, Hek-Id1 reporter gene assay [1]: 1.7 nM
B1: truncated human Gremlin-1 with N-terminal 6His-TEV tag (ligand)
chain: MGSSHHHHHHSSGENLYFQGSAMPGEEVLESSQEALHVTERKYLKRDWCKTQPLKQTIHEEGCNSRTIINRFCYGQCNSFYIPRHIRKEEGSFQSCSFCKPKKFTTMMVTLNCPELQPPTKKKRVTRVKQCRCISIDLD

IC50, restoration of BMP signalling blocked by human Gremlin, HEK-ID1 reporter gene assay [2]: 1.3 nM
IC50, restoration of BMP signalling blocked by mouse Gremlin, HEK-ID1 reporter gene assay [3]: 0.2 nM
B2: Ab7326 (antibody, V domains shown)
VH: QVQLVESGAEVKKPGATVKISCKVSGYTFTDYYMHWVQQAPGKGLEWMGLVDPEDGETIYAEKFQGRVTITADTSTDTAYMELSSLRSEDTAVYYCATDARGSGSYYPNHFDYWGQGTLVTVSS
VL: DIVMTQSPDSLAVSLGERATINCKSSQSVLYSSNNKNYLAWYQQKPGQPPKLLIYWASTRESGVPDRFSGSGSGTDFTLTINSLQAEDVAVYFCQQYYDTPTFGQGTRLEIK
